This data set deals with Escherichia coli TOP10. As to the kind of experiment: shrunken log2 fold change of peptide-encoding DNA abundance (4.5 h post-induction vs induction); higher = less antimicrobial activity (less host growth inhibition). Particulars: time post-induction: 4.5 h; library: site-saturation at positions 5, 18, 19, 20.
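Further: peptides expressed intracellularly from a pBAD plasmid library in pooled LB shake-flask culture, induced with 0.3% L-arabinose, DNA abundance read by NGS, three biological replicates, DESeq2 with apeglm shrinkage.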

Regarding RRIRLRPPRLPRPRPRPQQLPRP, the “shrunken log2 fold change” value is -0.106.

As for RRIRTRPPRLPRPRPRPWWRPRP, the “shrunken log2 fold change” value was -0.00919. RRIRIRPPRLPRPRPRPGKGPRP: the “shrunken log2 fold change” value was -0.185. With RRIRARPPRLPRPRPRPENVPRP, the “shrunken log2 fold change” value was 0.251. In the case of RRIRNRPPRLPRPRPRPYTGPRP, the “shrunken log2 fold change” value was -0.0137. As to RRIRKRPPRLPRPRPRPDATPRP, the “shrunken log2 fold change” value is 2.81.

Consider RRIRLRPPRLPRPRPRPHQCPRP, for which the “shrunken log2 fold change” value turned out to be 0.0182.

Take RRIRARPPRLPRPRPRPGIRPRP: the “shrunken log2 fold change” value was 0.475.

Take RRIRDRPPRLPRPRPRPWPYPRP: the “shrunken log2 fold change” value was -0.0943. As for RRIRRRPPRLPRPRPRPMKGPRP, the “shrunken log2 fold change” value is 0.144. In the case of RRIRSRPPRLPRPRPRPIAGPRP it was -0.00669; in that of RRIRVRPPRLPRPRPRPDCWPRP, 0.135. On to RRIRHRPPRLPRPRPRPVNGPRP, for which the “shrunken log2 fold change” value is -0.0224. With RRIRWRPPRLPRPRPRPEKQPRP, the “shrunken log2 fold change” value stood at 0.0441. In the case of RRIRVRPPRLPRPRPRPNAYPRP it was -0.572.

With RRIRPRPPRLPRPRPRPMYVPRP, the “shrunken log2 fold change” value is -1.06. RRIRWRPPRLPRPRPRPSSTPRP: the “shrunken log2 fold change” value was 0.0549.

RRIRNRPPRLPRPRPRPYMEPRP: the “shrunken log2 fold change” value is -0.0924. Under RRIRERPPRLPRPRPRPGRDPRP stands 0.419; under RRIRFRPPRLPRPRPRPSQEPRP, -0.286. Under RRIRKRPPRLPRPRPRPNRFPRP stands -0.0658; under RRIRGRPPRLPRPRPRPDATPRP, 4.21. Consider RRIRRRPPRLPRPRPRPYCEPRP, for which the “shrunken log2 fold change” value is -0.102. Consider RRIRSRPPRLPRPRPRPCDIPRP, for which the “shrunken log2 fold change” value is -0.0321. RRIRYRPPRLPRPRPRPIHTPRP: the “shrunken log2 fold change” value was -0.379.

For RRIRHRPPRLPRPRPRPMYDPRP, the “shrunken log2 fold change” value was found to be 0.0149. As for RRIRMRPPRLPRPRPRPDRTPRP, the “shrunken log2 fold change” value was determined as 0.52. In the case of RRIRNRPPRLPRPRPRPSMGPRP it was -0.0455. Under RRIRCRPPRLPRPRPRPMPKPRP stands 0.0972; under RRIRCRPPRLPRPRPRPGNHPRP, -0.587. With RRIRHRPPRLPRPRPRPCKDPRP, the “shrunken log2 fold change” value is -0.332. For the sequence RRIRRRPPRLPRPRPRPWSCPRP, the “shrunken log2 fold change” value was found to be 0.0681. For RRIRWRPPRLPRPRPRPFLPPRP, the “shrunken log2 fold change” value is -0.687. As for RRIRDRPPRLPRPRPRPRWGPRP, the “shrunken log2 fold change” value amounted to 0.471. As for RRIRSRPPRLPRPRPRPQQFPRP, the “shrunken log2 fold change” value is -0.123.

For the sequence RRIRIRPPRLPRPRPRPYLLPRP, the “shrunken log2 fold change” value was -1.52.

Take RRIRSRPPRLPRPRPRPIQPPRP: the “shrunken log2 fold change” value amounted to 0.117. RRIRHRPPRLPRPRPRPWPTPRP: the “shrunken log2 fold change” value was 0.103. As for RRIRNRPPRLPRPRPRPISRPRP, the “shrunken log2 fold change” value was -0.612.

RRIRCRPPRLPRPRPRPKWEPRP: the “shrunken log2 fold change” value is 0.173. In the case of RRIRLRPPRLPRPRPRPPMQPRP it was 0.189. Turning to RRIRQRPPRLPRPRPRPKFCPRP, the “shrunken log2 fold change” value is -0.0186. In the case of RRIRTRPPRLPRPRPRPRCEPRP it was 0.117; in that of RRIRSRPPRLPRPRPRPNSHPRP, -0.402; in that of RRIRIRPPRLPRPRPRPWAFPRP, -0.0187. Regarding RRIRDRPPRLPRPRPRPSIIPRP, the “shrunken log2 fold change” value was -0.266. Under RRIRVRPPRLPRPRPRPMPDPRP stands 0.00211; under RRIRRRPPRLPRPRPRPSAAPRP, 1.13. Regarding RRIRSRPPRLPRPRPRPQRWPRP, the “shrunken log2 fold change” value came out at 0.319. Consider RRIRKRPPRLPRPRPRPWEVPRP, for which the “shrunken log2 fold change” value was 0.0986.

Turning to RRIRQRPPRLPRPRPRPTETPRP, the “shrunken log2 fold change” value turned out to be 0.0687. Under RRIRKRPPRLPRPRPRPCMHPRP stands -0.0309. Take RRIRSRPPRLPRPRPRPYGAPRP: the “shrunken log2 fold change” value was -0.318. Regarding RRIRQRPPRLPRPRPRPYKTPRP, the “shrunken log2 fold change” value is -0.0141. RRIRDRPPRLPRPRPRPCAAPRP: the “shrunken log2 fold change” value was 0.704. In the case of RRIRIRPPRLPRPRPRPHMSPRP, the “shrunken log2 fold change” value is -0.109. In the case of RRIRARPPRLPRPRPRPQQSPRP, the “shrunken log2 fold change” value came out at 0.54. For the sequence RRIRGRPPRLPRPRPRPNPKPRP, the “shrunken log2 fold change” value is 0.391.

As for RRIRGRPPRLPRPRPRPRKDPRP, the “shrunken log2 fold change” value was 0.726. For RRIRCRPPRLPRPRPRPIAKPRP, the “shrunken log2 fold change” value stood at 0.0637. On to RRIRERPPRLPRPRPRPGWTPRP, for which the “shrunken log2 fold change” value is 0.0709.

Regarding RRIRCRPPRLPRPRPRPHQQPRP, the “shrunken log2 fold change” value came out at 0.14. For the sequence RRIRHRPPRLPRPRPRPLKTPRP, the “shrunken log2 fold change” value is 0.0116. For RRIRKRPPRLPRPRPRPGTKPRP, the “shrunken log2 fold change” value is 0.0906.

With RRIRRRPPRLPRPRPRPNSNPRP, the “shrunken log2 fold change” value was -0.302. For the sequence RRIRVRPPRLPRPRPRPMRIPRP, the “shrunken log2 fold change” value came out at 0.218. As to RRIRNRPPRLPRPRPRPSGMPRP, the “shrunken log2 fold change” value is -0.207. On to RRIRVRPPRLPRPRPRPTREPRP, for which the “shrunken log2 fold change” value is 0.59.

For RRIRVRPPRLPRPRPRPVHTPRP, the “shrunken log2 fold change” value was -0.0364. In the case of RRIRQRPPRLPRPRPRPMDEPRP it was 0.0268. In the case of RRIRCRPPRLPRPRPRPMGEPRP it was 0.0249; in that of RRIRFRPPRLPRPRPRPIIYPRP, -0.671; in that of RRIRIRPPRLPRPRPRPHILPRP, -1. RRIRLRPPRLPRPRPRPCWQPRP: the “shrunken log2 fold change” value is 0.00378.

Turning to RRIRHRPPRLPRPRPRPVDEPRP, the “shrunken log2 fold change” value worked out at 0.184.

As for RRIRARPPRLPRPRPRPNCQPRP, the “shrunken log2 fold change” value stood at 0.267.

As for RRIRVRPPRLPRPRPRPNPNPRP, the “shrunken log2 fold change” value was -0.108.

Turning to RRIRYRPPRLPRPRPRPTAVPRP, the “shrunken log2 fold change” value is -0.169.

For RRIRWRPPRLPRPRPRPFVIPRP, the “shrunken log2 fold change” value was -0.396. Take RRIRVRPPRLPRPRPRPNIHPRP: the “shrunken log2 fold change” value was -0.556.

Turning to RRIRIRPPRLPRPRPRPSVLPRP, the “shrunken log2 fold change” value is -0.189. As for RRIRYRPPRLPRPRPRPGSQPRP, the “shrunken log2 fold change” value is 0.0113. RRIRSRPPRLPRPRPRPQNNPRP: the “shrunken log2 fold change” value is -0.573. In the case of RRIRGRPPRLPRPRPRPCIHPRP it was 0.00637; in that of RRIRGRPPRLPRPRPRPDRAPRP, 1.04. For RRIRWRPPRLPRPRPRPLPRPRP, the “shrunken log2 fold change” value was found to be 0.534. As to RRIRDRPPRLPRPRPRPAHDPRP, the “shrunken log2 fold change” value worked out at 0.414.

In the case of RRIRWRPPRLPRPRPRPTPMPRP, the “shrunken log2 fold change” value was found to be 0.24. In the case of RRIRVRPPRLPRPRPRPRDHPRP, the “shrunken log2 fold change” value was determined as 0.172. In the case of RRIRQRPPRLPRPRPRPYHGPRP, the “shrunken log2 fold change” value is -0.126. Regarding RRIRVRPPRLPRPRPRPEMRPRP, the “shrunken log2 fold change” value is 0.562.

As for RRIRQRPPRLPRPRPRPFEAPRP, the “shrunken log2 fold change” value is -0.0497. As for RRIRNRPPRLPRPRPRPPTPPRP, the “shrunken log2 fold change” value was 0.56. In the case of RRIRNRPPRLPRPRPRPMVSPRP, the “shrunken log2 fold change” value is -0.145.

Turning to RRIRFRPPRLPRPRPRPCCMPRP, the “shrunken log2 fold change” value is -0.579. Under RRIRRRPPRLPRPRPRPRLSPRP stands -0.0979; under RRIRKRPPRLPRPRPRPEDPPRP, 2.99; under RRIRFRPPRLPRPRPRPHATPRP, -0.0624. With RRIRKRPPRLPRPRPRPMWSPRP, the “shrunken log2 fold change” value was 0.123.

Regarding RRIRHRPPRLPRPRPRPWRNPRP, the “shrunken log2 fold change” value came out at 0.00611. On to RRIRSRPPRLPRPRPRPIDHPRP, for which the “shrunken log2 fold change” value was -0.273. For RRIRQRPPRLPRPRPRPEHVPRP, the “shrunken log2 fold change” value turned out to be 0.00725.

Regarding RRIRRRPPRLPRPRPRPRRNPRP, the “shrunken log2 fold change” value is 0.223. In the case of RRIRNRPPRLPRPRPRPAIHPRP it was 0.0529; in that of RRIRERPPRLPRPRPRPVWPPRP, 0.0958; in that of RRIRGRPPRLPRPRPRPDFRPRP, -0.043. Turning to RRIRPRPPRLPRPRPRPDTFPRP, the “shrunken log2 fold change” value was -0.0596. As to RRIRVRPPRLPRPRPRPFIHPRP, the “shrunken log2 fold change” value was -0.104.

On to RRIRRRPPRLPRPRPRPGDCPRP, for which the “shrunken log2 fold change” value came to 0.336. On to RRIRSRPPRLPRPRPRPPNEPRP, for which the “shrunken log2 fold change” value amounted to 0.0505.

As to RRIRHRPPRLPRPRPRPEDVPRP, the “shrunken log2 fold change” value was -0.00992. For the sequence RRIRVRPPRLPRPRPRPPQYPRP, the “shrunken log2 fold change” value was -0.19.

Regarding RRIRQRPPRLPRPRPRPYYYPRP, the “shrunken log2 fold change” value is -1.18. As for RRIRARPPRLPRPRPRPPAGPRP, the “shrunken log2 fold change” value amounted to 0.883. In the case of RRIRGRPPRLPRPRPRPMGMPRP it was 0.886; in that of RRIRYRPPRLPRPRPRPEHDPRP, 0.0965. Turning to RRIRRRPPRLPRPRPRPRSHPRP, the “shrunken log2 fold change” value was -0.033.

Consider RRIRDRPPRLPRPRPRPNILPRP, for which the “shrunken log2 fold change” value is -0.437.

Consider RRIRTRPPRLPRPRPRPWMHPRP, for which the “shrunken log2 fold change” value is 0.032.

For RRIRARPPRLPRPRPRPSQTPRP, the “shrunken log2 fold change” value was found to be 0.416. In the case of RRIRDRPPRLPRPRPRPQNWPRP, the “shrunken log2 fold change” value was -0.00585. For RRIRRRPPRLPRPRPRPHATPRP, the “shrunken log2 fold change” value amounted to 0.492.

For RRIRFRPPRLPRPRPRPFDMPRP, the “shrunken log2 fold change” value is -0.294. As for RRIRWRPPRLPRPRPRPLQRPRP, the “shrunken log2 fold change” value is 0.189. On to RRIRVRPPRLPRPRPRPIYSPRP, for which the “shrunken log2 fold change” value is -0.203.

The values above are taken from the supplement of paper PMC9112550, “Optimization of the antimicrobial peptide Bac7 by deep mutational scanning” (BMC Biology, 2022).
